Laboratory results published in patent US7598225.

Target: human HLA A2 molecules (human)
Experiment: T2 cell binding assay, peptide at 50 ug/ml, surface HLA A2 stained with MAb A2,69, flow cytometry (no peptide: 127.25)
Conditions: remark: other sources report otherwise

- mean channel fluorescent intensity: 182
Binder: VISNDVCAQV [PSA peptide 154-163]
